Experimental data from PMC3793974, “Solution NMR Structure and Histone Binding of the PHD Domain of Human MLL5” (PLoS ONE, 2013).
One block for each binder: values may come before it. Where no end group is shown, it is not given here. Me3 = trimethyl-lysine; Me2 = dimethyl-lysine

Target: T1, PHD domain of human MLL5 (Ser109-Asp188) (human, UniProt Q8IZD2 109-188, 15N-labelled in the NMR titration)
T1 construct: Mixed Lineage Leukemia 5 (MLL5), human, PHD finger, residues 109-188, 80 residues; Cloned into the vector pET28a-MHL (GenBank EF456735 is the vector's id); The tag is detected with anti-His in the peptide array; also called MLL5PHD; MLL5 PHD finger; source: E. coli BL21 (DE3) Codon plus RIL, purified (Ni column, Superdex200, Source 30Q; for NMR 13C/15N-labelled from minimal media, Ni-NTA)
T1 sequence (looked up): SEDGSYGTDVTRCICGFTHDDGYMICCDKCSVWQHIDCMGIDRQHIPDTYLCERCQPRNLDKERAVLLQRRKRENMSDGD
Test: fluorescence polarisation; 40 nM fluorescein-labelled peptide, MLL5PHD titrated (low to high micromolar); 20 mM Tris-HCl pH 7.5, 50 mM NaCl, 0.01% Triton X-100; 384-well plates
Settings: both partners purified

Kd: ~16 µM
B1: H3K4me2 peptide labelled with fluorescein (peptide)
chain: ARTK(Me2)QTARKSTGGKA
modifications: not fully specified (N-terminus); also: fluorescein label, C- or N-terminal (sources disagree)

Kd: ~16 µM
B2: H3K4me3 peptide labelled with fluorescein (peptide)
chain: ARTK(Me3)QTARKSTGGKA
modifications: not fully specified (N-terminus); also: fluorescein label, C- or N-terminal (sources disagree)
